B1: library; numbered along this chain (parent)
chain: MRKPRAAVGSGHRKQAASQEGRQKHAKNNSQAKPSACDGLARQPEEVVLQASVSSYHLFRDVAEVTAFRGSLLSWYDQEKRDLPWRRRAEDEMDLDRRAYAVWVSEVMLQQTQVATVINYYTGWMQKWPTLQDLASASLEEVNQLWAGLGYYSRGRRLQEGARKVVEELGGHMPRTAETLQQLLPGVGRYTAGAIASIAFGQATGVVDGNVARVLCRVRAIGADPSSTLVSQQLWGLAQQLVDPARPGDFNQAAMELGATVCTPQRPLCSQCPVESLCRARQRVEQEQLLASGSLSGSPDVEECAPNTGQCHLCLPPSEPWDQTLGVVNFPRKASRKPPREESSATCVLEQPGALGAQILLVQRPNSGLLAGLWEFPSVTWEPSEQLQRKALLQELQRWAGPLPATHLRHLGEVVHTFSHIKLTYQVYGLALEGQTPVTTVPPGARWLTQEEFHTAAVSTAMKKVFRVYQGQQPGTCMGSKRSQVSSPCSRKKPRMGQQVLDNFFRSHISTDAHSLNSAAQ

Variants of: B1
Assay: 8OG:A repair function score (normalized; synonymous = 0, nonsense = -1) (normalized log-likelihood score); higher = more repair activity (WT-like)
Details: with 8OG:A DNA repair reporter (GFP) in HEK-293 MUTYH KO cells
In short: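 Per-tile Rosace fitness scores were converted to a normalized repair function score anchored on synonymous and nonsense distributions. That scale puts synonymous medians at 0 and nonsense medians at -1. Variants with starting counts under 300 counts per million were discarded. Input came from sorting viable mCherry+ MUTYH knockout HEK-293 cells, carrying lentiviral MUTYH cDNA NNN codon-scan libraries in 10 pg/ml doxycycline and an 8OG:A GFP repair reporter, into GFP+ and GFP− bins at 72 h, three replicates per tile, followed by tile amplicon sequencing.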
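Also: cells sorted at 72 h after reporter transfection.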

Going from MRKPRAAVGSGHRKQAASQEGRQKHAKNNSQAKPSACDGLARQPEEVVLQASVSSYHLFRDVAEVTAFRGSLLSWYDQEKRDLPWRRRAEDEMDLDRRAYAVWVSEVMLQQTQVATVINYYTGWMQKWPTLQDLASASLEEVNQLWAGLGYYSRGRRLQEGARKVVEELGGHMLRTAETLQQLLPGVGRYTAGAIASIAFGQATGVVDGNVARVLCRVRAIGADPSSTLVSQQLWGLAQQLVDPARPGDFNQAAMELGATVCTPQRPLCSQCPVESLCRARQRVEQEQLLASGSLSGSPDVEECAPNTGQCHLCLPPSEPWDQTLGVVNFPRKASRKPPREESSATCVLEQPGALGAQILLVQRPNSGLLAGLWEFPSVTWEPSEQLQRKALLQELQRWAGPLPATHLRHLGEVVHTFSHIKLTYQVYGLALEGQTPVTTVPPGARWLTQEEFHTAAVSTAMKKVFRVYQGQQPGTCMGSKRSQVSSPCSRKKPRMGQQVLDNFFRSHISTDAHSLNSAAQ [P174L] to MRKPRAAVGSGHRKQAASQEGRQKHAKNNSQAKPSACDGLARQPEEVVLQASVSSYHLFRDVAEVTAFRGSLLSWYDQEKRDLPWRRRAEDEMDLDRRAYAVWVSEVMLQQTQVATVINYYTGWMQKWPTLQDLASASLEEVNQLWAGLGYYSRGRRLQEGARKVVEELGGHMMRTAETLQQLLPGVGRYTAGAIASIAFGQATGVVDGNVARVLCRVRAIGADPSSTLVSQQLWGLAQQLVDPARPGDFNQAAMELGATVCTPQRPLCSQCPVESLCRARQRVEQEQLLASGSLSGSPDVEECAPNTGQCHLCLPPSEPWDQTLGVVNFPRKASRKPPREESSATCVLEQPGALGAQILLVQRPNSGLLAGLWEFPSVTWEPSEQLQRKALLQELQRWAGPLPATHLRHLGEVVHTFSHIKLTYQVYGLALEGQTPVTTVPPGARWLTQEEFHTAAVSTAMKKVFRVYQGQQPGTCMGSKRSQVSSPCSRKKPRMGQQVLDNFFRSHISTDAHSLNSAAQ [P174M], the “8OG:A repair function score” value rises from -0.947 to -0.732.

Compared with MRKPRAAVGSGHRKQAASQEGRQKHAKNNSQAKPSACDGLARQPEEVVLQASVSSYHLFRDVAEVTAFRGSLLSWYDQEKRDLPWRRRAEDEMDLDRRAYAVWVSEVMLQQTQVATVINYYTGWMQKWPTLQDLASASLEEVNQLWAGLGYYSRGRRLQEGARKVVEELGGHMERTAETLQQLLPGVGRYTAGAIASIAFGQATGVVDGNVARVLCRVRAIGADPSSTLVSQQLWGLAQQLVDPARPGDFNQAAMELGATVCTPQRPLCSQCPVESLCRARQRVEQEQLLASGSLSGSPDVEECAPNTGQCHLCLPPSEPWDQTLGVVNFPRKASRKPPREESSATCVLEQPGALGAQILLVQRPNSGLLAGLWEFPSVTWEPSEQLQRKALLQELQRWAGPLPATHLRHLGEVVHTFSHIKLTYQVYGLALEGQTPVTTVPPGARWLTQEEFHTAAVSTAMKKVFRVYQGQQPGTCMGSKRSQVSSPCSRKKPRMGQQVLDNFFRSHISTDAHSLNSAAQ [P174E], MRKPRAAVGSGHRKQAASQEGRQKHAKNNSQAKPSACDGLARQPEEVVLQASVSSYHLFRDVAEVTAFRGSLLSWYDQEKRDLPWRRRAEDEMDLDRRAYAVWVSEVMLQQTQVATVINYYTGWMQKWPTLQDLASASLEEVNQLWAGLGYYSRGRRLQEGARKVVEELGGHMARTAETLQQLLPGVGRYTAGAIASIAFGQATGVVDGNVARVLCRVRAIGADPSSTLVSQQLWGLAQQLVDPARPGDFNQAAMELGATVCTPQRPLCSQCPVESLCRARQRVEQEQLLASGSLSGSPDVEECAPNTGQCHLCLPPSEPWDQTLGVVNFPRKASRKPPREESSATCVLEQPGALGAQILLVQRPNSGLLAGLWEFPSVTWEPSEQLQRKALLQELQRWAGPLPATHLRHLGEVVHTFSHIKLTYQVYGLALEGQTPVTTVPPGARWLTQEEFHTAAVSTAMKKVFRVYQGQQPGTCMGSKRSQVSSPCSRKKPRMGQQVLDNFFRSHISTDAHSLNSAAQ [P174A] is higher in “8OG:A repair function score” value: -0.932 for the first, -0.706 for the second.

Going from MRKPRAAVGSGHRKQAASQEGRQKHAKNNSQAKPSACDGLARQPEEVVLQASVSSYHLFRDVAEVTAFRGSLLSWYDQEKRDLPWRRRAEDEMDLDRRAYAVWVSEVMLQQTQVATVINYYTGWMQKWPTLQDLASASLEEVNQLWAGLGYYSRGRRLQEGARKVVEELGGHMFRTAETLQQLLPGVGRYTAGAIASIAFGQATGVVDGNVARVLCRVRAIGADPSSTLVSQQLWGLAQQLVDPARPGDFNQAAMELGATVCTPQRPLCSQCPVESLCRARQRVEQEQLLASGSLSGSPDVEECAPNTGQCHLCLPPSEPWDQTLGVVNFPRKASRKPPREESSATCVLEQPGALGAQILLVQRPNSGLLAGLWEFPSVTWEPSEQLQRKALLQELQRWAGPLPATHLRHLGEVVHTFSHIKLTYQVYGLALEGQTPVTTVPPGARWLTQEEFHTAAVSTAMKKVFRVYQGQQPGTCMGSKRSQVSSPCSRKKPRMGQQVLDNFFRSHISTDAHSLNSAAQ [P174F] to MRKPRAAVGSGHRKQAASQEGRQKHAKNNSQAKPSACDGLARQPEEVVLQASVSSYHLFRDVAEVTAFRGSLLSWYDQEKRDLPWRRRAEDEMDLDRRAYAVWVSEVMLQQTQVATVINYYTGWMQKWPTLQDLASASLEEVNQLWAGLGYYSRGRRLQEGARKVVEELGGHMIRTAETLQQLLPGVGRYTAGAIASIAFGQATGVVDGNVARVLCRVRAIGADPSSTLVSQQLWGLAQQLVDPARPGDFNQAAMELGATVCTPQRPLCSQCPVESLCRARQRVEQEQLLASGSLSGSPDVEECAPNTGQCHLCLPPSEPWDQTLGVVNFPRKASRKPPREESSATCVLEQPGALGAQILLVQRPNSGLLAGLWEFPSVTWEPSEQLQRKALLQELQRWAGPLPATHLRHLGEVVHTFSHIKLTYQVYGLALEGQTPVTTVPPGARWLTQEEFHTAAVSTAMKKVFRVYQGQQPGTCMGSKRSQVSSPCSRKKPRMGQQVLDNFFRSHISTDAHSLNSAAQ [P174I], the “8OG:A repair function score” value rises from -0.961 to -0.9.

First: MRKPRAAVGSGHRKQAASQEGRQKHAKNNSQAKPSACDGLARQPEEVVLQASVSSYHLFRDVAEVTAFRGSLLSWYDQEKRDLPWRRRAEDEMDLDRRAYAVWVSEVMLQQTQVATVINYYTGWMQKWPTLQDLASASLEEVNQLWAGLGYYSRGRRLQEGARKVVEELGGHMCRTAETLQQLLPGVGRYTAGAIASIAFGQATGVVDGNVARVLCRVRAIGADPSSTLVSQQLWGLAQQLVDPARPGDFNQAAMELGATVCTPQRPLCSQCPVESLCRARQRVEQEQLLASGSLSGSPDVEECAPNTGQCHLCLPPSEPWDQTLGVVNFPRKASRKPPREESSATCVLEQPGALGAQILLVQRPNSGLLAGLWEFPSVTWEPSEQLQRKALLQELQRWAGPLPATHLRHLGEVVHTFSHIKLTYQVYGLALEGQTPVTTVPPGARWLTQEEFHTAAVSTAMKKVFRVYQGQQPGTCMGSKRSQVSSPCSRKKPRMGQQVLDNFFRSHISTDAHSLNSAAQ [P174C]
Second: MRKPRAAVGSGHRKQAASQEGRQKHAKNNSQAKPSACDGLARQPEEVVLQASVSSYHLFRDVAEVTAFRGSLLSWYDQEKRDLPWRRRAEDEMDLDRRAYAVWVSEVMLQQTQVATVINYYTGWMQKWPTLQDLASASLEEVNQLWAGLGYYSRGRRLQEGARKVVEELGGHMDRTAETLQQLLPGVGRYTAGAIASIAFGQATGVVDGNVARVLCRVRAIGADPSSTLVSQQLWGLAQQLVDPARPGDFNQAAMELGATVCTPQRPLCSQCPVESLCRARQRVEQEQLLASGSLSGSPDVEECAPNTGQCHLCLPPSEPWDQTLGVVNFPRKASRKPPREESSATCVLEQPGALGAQILLVQRPNSGLLAGLWEFPSVTWEPSEQLQRKALLQELQRWAGPLPATHLRHLGEVVHTFSHIKLTYQVYGLALEGQTPVTTVPPGARWLTQEEFHTAAVSTAMKKVFRVYQGQQPGTCMGSKRSQVSSPCSRKKPRMGQQVLDNFFRSHISTDAHSLNSAAQ [P174D]
The “8OG:A repair function score” value of the first is higher: -0.583 for the first, -0.922 for the second.

Going from MRKPRAAVGSGHRKQAASQEGRQKHAKNNSQAKPSACDGLARQPEEVVLQASVSSYHLFRDVAEVTAFRGSLLSWYDQEKRDLPWRRRAEDEMDLDRRAYAVWVSEVMLQQTQVATVINYYTGWMQKWPTLQDLASASLEEVNQLWAGLGYYSRGRRLQEGARKVVEELGGHMNRTAETLQQLLPGVGRYTAGAIASIAFGQATGVVDGNVARVLCRVRAIGADPSSTLVSQQLWGLAQQLVDPARPGDFNQAAMELGATVCTPQRPLCSQCPVESLCRARQRVEQEQLLASGSLSGSPDVEECAPNTGQCHLCLPPSEPWDQTLGVVNFPRKASRKPPREESSATCVLEQPGALGAQILLVQRPNSGLLAGLWEFPSVTWEPSEQLQRKALLQELQRWAGPLPATHLRHLGEVVHTFSHIKLTYQVYGLALEGQTPVTTVPPGARWLTQEEFHTAAVSTAMKKVFRVYQGQQPGTCMGSKRSQVSSPCSRKKPRMGQQVLDNFFRSHISTDAHSLNSAAQ [P174N] to MRKPRAAVGSGHRKQAASQEGRQKHAKNNSQAKPSACDGLARQPEEVVLQASVSSYHLFRDVAEVTAFRGSLLSWYDQEKRDLPWRRRAEDEMDLDRRAYAVWVSEVMLQQTQVATVINYYTGWMQKWPTLQDLASASLEEVNQLWAGLGYYSRGRRLQEGARKVVEELGGHMHRTAETLQQLLPGVGRYTAGAIASIAFGQATGVVDGNVARVLCRVRAIGADPSSTLVSQQLWGLAQQLVDPARPGDFNQAAMELGATVCTPQRPLCSQCPVESLCRARQRVEQEQLLASGSLSGSPDVEECAPNTGQCHLCLPPSEPWDQTLGVVNFPRKASRKPPREESSATCVLEQPGALGAQILLVQRPNSGLLAGLWEFPSVTWEPSEQLQRKALLQELQRWAGPLPATHLRHLGEVVHTFSHIKLTYQVYGLALEGQTPVTTVPPGARWLTQEEFHTAAVSTAMKKVFRVYQGQQPGTCMGSKRSQVSSPCSRKKPRMGQQVLDNFFRSHISTDAHSLNSAAQ [P174H], the “8OG:A repair function score” value falls from -0.958 to -0.972.

First: MRKPRAAVGSGHRKQAASQEGRQKHAKNNSQAKPSACDGLARQPEEVVLQASVSSYHLFRDVAEVTAFRGSLLSWYDQEKRDLPWRRRAEDEMDLDRRAYAVWVSEVMLQQTQVATVINYYTGWMQKWPTLQDLASASLEEVNQLWAGLGYYSRGRRLQEGARKVVEELGGHMGRTAETLQQLLPGVGRYTAGAIASIAFGQATGVVDGNVARVLCRVRAIGADPSSTLVSQQLWGLAQQLVDPARPGDFNQAAMELGATVCTPQRPLCSQCPVESLCRARQRVEQEQLLASGSLSGSPDVEECAPNTGQCHLCLPPSEPWDQTLGVVNFPRKASRKPPREESSATCVLEQPGALGAQILLVQRPNSGLLAGLWEFPSVTWEPSEQLQRKALLQELQRWAGPLPATHLRHLGEVVHTFSHIKLTYQVYGLALEGQTPVTTVPPGARWLTQEEFHTAAVSTAMKKVFRVYQGQQPGTCMGSKRSQVSSPCSRKKPRMGQQVLDNFFRSHISTDAHSLNSAAQ [P174G]
Second: MRKPRAAVGSGHRKQAASQEGRQKHAKNNSQAKPSACDGLARQPEEVVLQASVSSYHLFRDVAEVTAFRGSLLSWYDQEKRDLPWRRRAEDEMDLDRRAYAVWVSEVMLQQTQVATVINYYTGWMQKWPTLQDLASASLEEVNQLWAGLGYYSRGRRLQEGARKVVEELGGHMKRTAETLQQLLPGVGRYTAGAIASIAFGQATGVVDGNVARVLCRVRAIGADPSSTLVSQQLWGLAQQLVDPARPGDFNQAAMELGATVCTPQRPLCSQCPVESLCRARQRVEQEQLLASGSLSGSPDVEECAPNTGQCHLCLPPSEPWDQTLGVVNFPRKASRKPPREESSATCVLEQPGALGAQILLVQRPNSGLLAGLWEFPSVTWEPSEQLQRKALLQELQRWAGPLPATHLRHLGEVVHTFSHIKLTYQVYGLALEGQTPVTTVPPGARWLTQEEFHTAAVSTAMKKVFRVYQGQQPGTCMGSKRSQVSSPCSRKKPRMGQQVLDNFFRSHISTDAHSLNSAAQ [P174K]
The “8OG:A repair function score” value of the first is lower: -0.814 for the first, -0.797 for the second.

From the supplement of paper PMC11908140
